B1: Acid stress protein IbaG (Escherichia coli (strain K12)), P0A9W6 (parent)
chain: MENNEIQSVLMNALSLQEVHVSGDGSHFQVIAVGELFDGMSRVKKQQTVYGPLMEYIADNRIHAVSIKAYTPAEWARDRKLNGF
partner: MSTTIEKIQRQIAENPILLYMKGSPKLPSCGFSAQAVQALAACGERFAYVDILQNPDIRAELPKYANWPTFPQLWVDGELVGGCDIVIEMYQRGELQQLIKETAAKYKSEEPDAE

Variants of: B1
Conditions: with glrx4_ecoli grxD

Variant	effect of a mutation on the interaction
MENNEIQSVLMNALSLQEVHVSGDGSAFQVIAVGELFDGMSRVKKQQTVYGPLMEYIADNRIHAVSIKAYTPAEWARDRKLNGF [H27A]	with no effect
MENNEIQSVLMNALSLQEVHVSGDGAHFQVIAVGELFDGMSRVKKQQTVYGPLMEYIADNRIHAVSIKAYTPAEWARDRKLNGF [S26A]	with no effect

Next, values leading:

effect of a mutation on the interaction	Variant
with no effect	MENNEIQSVLMNALSLQEVHVSGDGSHFQVIAVGELFDGMSRVKKQQTVYGPLMEYIADNRIAAVSIKAYTPAEWARDRKLNGF [H63A]
with no effect	MENNEIQSVLMNALSLQEVHVSGDGSHFQVIAVGELFDGMSRVKKQQTVYGPLMEYIADNRICAVSIKAYTPAEWARDRKLNGF [H63C]
with no effect	MENNEIQSVLMNALSLQEVHVSGDGSCFQVIAVGELFDGMSRVKKQQTVYGPLMEYIADNRIHAVSIKAYTPAEWARDRKLNGF [H27C]
